Test results from patent US20220402980A1 (published 2022).
Like-named read-outs stand apart in the source and are kept apart here. Bridges are numbered along the chain shown (N, C = ends). Where no end group is shown, it is not given here. [ ]: non-standard residue; d: D form. maleimide‑NOTA = 1,4,7-triazacyclononane-1,4-bis-acetic acid-7-maleimidoethylacetamide; Lys(N3) = [N-]=[N+]=NCCCC[C@H](N)C(=O)O; Pra = C#CC[C@H](N)C(=O)O

How the values were obtained:
[1] = biological target: T1, recombinant human αvβ6 extracellular domain (R&D Systems) (human, UniProt P06756 31-992; P18564 22-709)
T1 chain 1: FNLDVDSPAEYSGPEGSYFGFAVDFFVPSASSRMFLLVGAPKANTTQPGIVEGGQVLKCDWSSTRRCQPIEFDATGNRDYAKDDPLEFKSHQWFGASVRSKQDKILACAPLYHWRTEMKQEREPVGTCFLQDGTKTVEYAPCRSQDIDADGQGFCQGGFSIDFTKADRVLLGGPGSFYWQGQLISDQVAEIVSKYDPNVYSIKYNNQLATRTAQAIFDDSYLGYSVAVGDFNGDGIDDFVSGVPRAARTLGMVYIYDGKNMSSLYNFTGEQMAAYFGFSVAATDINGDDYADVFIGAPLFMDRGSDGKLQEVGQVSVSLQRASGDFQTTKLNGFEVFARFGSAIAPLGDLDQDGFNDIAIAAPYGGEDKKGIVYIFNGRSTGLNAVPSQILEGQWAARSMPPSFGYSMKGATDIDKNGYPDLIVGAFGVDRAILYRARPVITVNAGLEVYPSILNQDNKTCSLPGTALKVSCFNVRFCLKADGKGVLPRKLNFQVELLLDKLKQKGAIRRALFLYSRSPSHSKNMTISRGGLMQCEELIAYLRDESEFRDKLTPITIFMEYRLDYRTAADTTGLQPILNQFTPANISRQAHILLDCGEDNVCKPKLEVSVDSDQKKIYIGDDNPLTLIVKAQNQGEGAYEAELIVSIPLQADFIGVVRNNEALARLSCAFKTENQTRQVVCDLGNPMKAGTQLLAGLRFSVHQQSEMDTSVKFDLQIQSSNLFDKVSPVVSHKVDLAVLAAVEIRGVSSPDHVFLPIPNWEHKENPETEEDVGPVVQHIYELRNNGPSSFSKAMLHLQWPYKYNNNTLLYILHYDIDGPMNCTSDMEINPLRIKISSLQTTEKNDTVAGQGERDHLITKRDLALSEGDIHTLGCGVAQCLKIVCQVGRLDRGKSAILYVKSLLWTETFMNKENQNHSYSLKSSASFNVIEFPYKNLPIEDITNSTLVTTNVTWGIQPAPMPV
T1 chain 2: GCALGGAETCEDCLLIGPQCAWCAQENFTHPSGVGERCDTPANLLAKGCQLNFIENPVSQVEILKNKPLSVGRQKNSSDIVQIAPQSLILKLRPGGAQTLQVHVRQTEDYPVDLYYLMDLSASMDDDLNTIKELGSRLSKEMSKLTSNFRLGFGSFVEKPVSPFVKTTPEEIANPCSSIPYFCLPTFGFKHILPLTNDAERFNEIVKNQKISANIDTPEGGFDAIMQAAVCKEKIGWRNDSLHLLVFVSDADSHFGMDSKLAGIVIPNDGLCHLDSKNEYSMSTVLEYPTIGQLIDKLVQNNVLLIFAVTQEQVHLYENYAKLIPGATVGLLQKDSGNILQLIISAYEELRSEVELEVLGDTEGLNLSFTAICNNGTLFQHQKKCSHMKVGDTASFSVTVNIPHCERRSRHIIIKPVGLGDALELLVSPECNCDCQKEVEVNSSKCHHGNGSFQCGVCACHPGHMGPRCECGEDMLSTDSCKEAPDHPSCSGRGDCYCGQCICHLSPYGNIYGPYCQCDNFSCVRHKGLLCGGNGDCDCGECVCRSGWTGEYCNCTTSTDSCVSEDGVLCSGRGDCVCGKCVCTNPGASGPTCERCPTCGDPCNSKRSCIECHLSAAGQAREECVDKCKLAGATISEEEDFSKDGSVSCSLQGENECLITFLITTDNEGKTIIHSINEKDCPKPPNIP

[2] = biological target: T2, cell-surface expressed αvβ6 on human cells (5637 bladder cancer cells, HaCaT keratinocytes, BxPC-3 pancreatic … (human, UniProt P06756 31-1048; P18564 22-788); assay: FACS
T2 chain 1: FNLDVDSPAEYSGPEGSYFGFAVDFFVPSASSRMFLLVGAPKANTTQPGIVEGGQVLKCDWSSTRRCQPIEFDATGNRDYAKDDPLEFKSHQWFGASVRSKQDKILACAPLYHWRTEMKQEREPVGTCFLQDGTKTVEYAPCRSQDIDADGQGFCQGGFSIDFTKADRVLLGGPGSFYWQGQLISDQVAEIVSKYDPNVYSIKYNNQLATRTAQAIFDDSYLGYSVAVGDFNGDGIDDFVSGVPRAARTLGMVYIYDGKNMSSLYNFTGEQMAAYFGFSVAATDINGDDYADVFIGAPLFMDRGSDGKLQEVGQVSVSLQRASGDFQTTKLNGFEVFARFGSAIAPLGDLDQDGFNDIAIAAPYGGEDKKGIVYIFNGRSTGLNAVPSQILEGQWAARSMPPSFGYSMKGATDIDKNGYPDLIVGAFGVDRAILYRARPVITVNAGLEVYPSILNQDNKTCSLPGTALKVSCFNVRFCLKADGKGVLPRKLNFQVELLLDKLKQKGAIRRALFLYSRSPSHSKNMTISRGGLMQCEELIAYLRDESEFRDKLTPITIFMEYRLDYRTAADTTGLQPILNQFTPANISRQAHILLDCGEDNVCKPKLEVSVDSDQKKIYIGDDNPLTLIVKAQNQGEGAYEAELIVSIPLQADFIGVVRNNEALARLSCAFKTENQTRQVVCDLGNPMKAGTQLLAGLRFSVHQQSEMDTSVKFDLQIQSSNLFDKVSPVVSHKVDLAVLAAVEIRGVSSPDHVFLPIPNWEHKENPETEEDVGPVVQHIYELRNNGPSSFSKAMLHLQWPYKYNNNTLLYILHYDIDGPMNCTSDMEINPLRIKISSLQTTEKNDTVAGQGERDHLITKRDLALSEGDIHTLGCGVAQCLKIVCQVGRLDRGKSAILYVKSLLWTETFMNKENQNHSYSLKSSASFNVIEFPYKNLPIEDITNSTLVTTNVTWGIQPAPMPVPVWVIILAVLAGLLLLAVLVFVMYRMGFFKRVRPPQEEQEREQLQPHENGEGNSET
T2 chain 2: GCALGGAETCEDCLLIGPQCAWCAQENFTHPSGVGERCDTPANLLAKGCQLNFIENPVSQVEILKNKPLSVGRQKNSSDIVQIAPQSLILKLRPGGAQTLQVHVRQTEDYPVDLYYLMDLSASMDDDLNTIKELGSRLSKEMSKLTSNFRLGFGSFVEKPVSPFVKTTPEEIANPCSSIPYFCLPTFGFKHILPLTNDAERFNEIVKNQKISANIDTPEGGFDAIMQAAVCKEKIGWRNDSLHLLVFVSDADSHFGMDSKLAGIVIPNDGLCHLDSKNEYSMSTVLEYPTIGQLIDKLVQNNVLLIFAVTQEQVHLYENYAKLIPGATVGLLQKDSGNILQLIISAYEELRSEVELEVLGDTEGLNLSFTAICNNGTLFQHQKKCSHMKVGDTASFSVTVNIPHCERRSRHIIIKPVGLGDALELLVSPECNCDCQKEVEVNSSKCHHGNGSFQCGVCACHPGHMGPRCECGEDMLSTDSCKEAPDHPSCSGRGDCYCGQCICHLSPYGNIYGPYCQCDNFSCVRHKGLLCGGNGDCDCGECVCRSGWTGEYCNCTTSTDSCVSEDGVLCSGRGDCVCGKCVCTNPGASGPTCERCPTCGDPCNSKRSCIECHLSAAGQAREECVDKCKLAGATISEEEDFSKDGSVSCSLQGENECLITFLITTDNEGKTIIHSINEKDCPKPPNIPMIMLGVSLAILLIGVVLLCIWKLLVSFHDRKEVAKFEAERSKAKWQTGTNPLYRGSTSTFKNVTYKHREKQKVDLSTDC

[3] = biological target: T1, recombinant human αvβ6 extracellular …
[4] = biological target: T2, cell-surface expressed αvβ6 on human …; assay: FACS
[5] = biological target: T3, αvβ8 integrin (purified, coated on microtiter plates) (UniProt P06756 31-992; P26012 43-684)
T3 chain 1: T1 chain 1
T3 chain 2: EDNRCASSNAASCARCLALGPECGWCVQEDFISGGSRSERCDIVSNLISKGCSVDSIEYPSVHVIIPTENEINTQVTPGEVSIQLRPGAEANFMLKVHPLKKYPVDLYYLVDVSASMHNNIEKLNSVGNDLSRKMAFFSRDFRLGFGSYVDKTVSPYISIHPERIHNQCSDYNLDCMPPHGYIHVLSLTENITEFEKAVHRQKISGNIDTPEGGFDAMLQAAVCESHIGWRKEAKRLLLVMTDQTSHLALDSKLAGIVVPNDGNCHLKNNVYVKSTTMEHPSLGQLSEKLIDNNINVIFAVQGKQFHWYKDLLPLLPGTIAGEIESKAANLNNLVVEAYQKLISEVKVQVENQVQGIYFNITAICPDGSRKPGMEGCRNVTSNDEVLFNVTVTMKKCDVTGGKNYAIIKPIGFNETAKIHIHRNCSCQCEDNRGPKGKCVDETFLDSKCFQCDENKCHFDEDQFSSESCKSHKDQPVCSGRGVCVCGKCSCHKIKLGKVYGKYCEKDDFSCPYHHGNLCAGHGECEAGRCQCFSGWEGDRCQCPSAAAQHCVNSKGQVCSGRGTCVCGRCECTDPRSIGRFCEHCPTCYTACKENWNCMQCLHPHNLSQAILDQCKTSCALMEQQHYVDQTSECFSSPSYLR

[6] = biological target: T1, recombinant human αvβ6 extracellular …

Ac-FETLRGDLRILSILR[Pra]QNL[Lys(N3)]KELQD-NH2 (triazole 16-20) [peptide 5 (triazole-stapled CgA39-63-derived peptide)]
Ki [1]: 0.84 nM | IC50 [2]: 3.6 nM | Ki [3]: 0.93 nM | IC50 [4]: 25 nM

C(maleimide‑NOTA)FETLRGEERILSILRHQNLLKELQD [NOTA-2a (peptide 2a coupled to maleimide-NOTA)]
Ki [3]: > 1000 nM

C(IRDye 800CW maleimide)FETLRGDLRILSILR[Pra]QNL[Lys(N3)]KELQD-NH2 (triazole 17-21) [5a-IRDye (peptide 5a coupled via Cys to maleimide-IRDye 800CW)]
EC50 [5]: 1.9 nM | EC50 [6]: 2.8 nM

FETLRGDLRILSILRHQNLLKELQD [peptide 4]
IC50 [2]: 16.9 nM | IC50 [4]: 80 nM

CFETLRGEERILSILRHQNLLKELQD [peptide 2a]
Ki [1]: > 100 nM

C(maleimide‑NOTA)FETLRGDLRILSILR[Pra]QNL[Lys(N3)]KELQD-NH2 (triazole 17-21) [NOTA-5a (peptide 5a coupled to maleimide-NOTA)]
Ki [3]: 2.31 nM

FETLRGDERILSILRHQNLLKELQD [peptide 1 (CgA-derived peptide, residues 39-63), synthetic]
IC50 [2]: 640 nM

CFETLRGDLRILSILR[Pra]QNL[Lys(N3)]KELQD-NH2 (triazole 17-21) [peptide 5a]
Ki [3]: 1.71 nM
